B1: … (HPV18 E1, position 571, 9 amino acids) (peptide)
peptide: LTTNIHPAK
modifications: not checked
B2: … (HPV18 E1, position 119, 9 amino acids) (peptide)
peptide: NSGQKKAKR
modifications: not checked
B3: HPV18 E1 116 … (peptide)
peptide: ISLNSGQKK
modifications: not checked
B4: … (HPV16 E6, position 69) (peptide)
peptide: VCDKCLKFY
modifications: not checked
B5: HPV18 E6 peptide … (position 131, 9 amino acids) (peptide)
peptide: AGHYRGQCH
modifications: not checked
B6: HPV31 E1 peptide … (position 10, 9 amino acids) (peptide)
peptide: EGTGCNGWF
modifications: not checked
B7: HPV18 E1 279 … (peptide)
peptide: GVLILALLR
modifications: not checked
B8: HPV31 E1 peptide … (position 10, 10 amino acids) (peptide)
peptide: EGTGCNGWFY
modifications: not checked
B9: HPV18 E1 341 … (peptide)
peptide: GDTPEWIQR
modifications: not checked
B10: … (HPV16 E6, position 145) (peptide)
peptide: SCCRSSRTR
modifications: not checked
B11: … (HPV16 E6, position 117) (peptide)
peptide: LCPEEKQRH
modifications: not checked
B12: … (HPV16 E6, position 139) (peptide)
peptide: WTGRCMSCCR
modifications: not checked
B13: … (HPV16 E6, position 140) (peptide)
peptide: TGRCMSCCR
modifications: not checked
B14: … (HPV16 E6, position 116) (peptide)
peptide: PLCPEEKQR
modifications: not checked
B15: HPV18 E6 peptide … (position 58, 9 amino acids) (peptide)
peptide: DSIPHAACH
modifications: not checked
B16: HPV18 E6 peptide … (position 77, 10 amino acids) (peptide)
peptide: ELRHYSDSVY
modifications: not checked
B17: … (HPV18 E1, position 574, 9 amino acids) (peptide)
peptide: NIHPAKDNR
modifications: not checked
B18: … (HPV16 E6, position 134) (peptide)
peptide: NIRGRWTGR
modifications: not checked
B19: HPV18 E6 peptide … (position 3, 10 amino acids) (peptide)
peptide: RFEDPTRRPY
modifications: not checked
B20: HPV18 E1 peptide … (position 281, 9 amino acids) (peptide)
peptide: LILALLRYK
modifications: not checked
B21: HPV18 E1 peptide … (position 468, 9 amino acids) (peptide)
peptide: KSFLKGTPK
modifications: not checked
B22: HPV18 E1 peptide … (position 647, 9 amino acids) (peptide)
peptide: KLRAGQNHR
modifications: not checked
B23: HPV18 E6 peptide … (position 68, 9 amino acids) (peptide)
peptide: CIDFYSRIR
modifications: not checked
B24: HPV18 E6 peptide … (position 27, 10 amino acids) (peptide)
peptide: DIEITCVYCK
modifications: not checked
B25: HPV18 E6 peptide EVFEFAFK (position 43, 8 amino acids) (peptide)
peptide: EVFEFAFK
modifications: not checked
B26: HPV18 E6 peptide … (position 83, 10 amino acids) (peptide)
peptide: DSVYGDTLEK
modifications: not checked
B27: HPV16 E6 peptide … (peptide)
peptide: GTTLEQQYNK
modifications: not checked
B28: HPV45 E1 215 … (peptide)
peptide: LVRNFKSDK
modifications: not checked
B29: HPV31 E6 peptide … (position 109, 9 amino acids; Seq. Id. No. 10308) (peptide)
peptide: PLCPEEKQR
modifications: not checked
B30: HPV16 E6 peptide AVCDKCLK (peptide)
peptide: AVCDKCLK
modifications: not checked
B31: HPV16 E6 peptide … (peptide)
peptide: CVYCKQQLLR
modifications: not checked
B32: … (HPV31 E1, position 285, 9 amino acids) (peptide)
peptide: MLIQPPKLR
modifications: not checked
B33: HPV45 E1 379 … (peptide)
peptide: NSNAAAFLK
modifications: not checked
B34: HPV16 E6 peptide … (peptide)
peptide: IILECVYCK
modifications: not checked
B35: HPV45 E1 265 … (peptide)
peptide: GVLILALLR
modifications: not checked
B36: HPV18 E7 peptide TMLCMCCK (position 60, 8 amino acids) (peptide)
peptide: TMLCMCCK
modifications: not checked
B37: HPV16 E6 peptide EVYDFAFR (peptide)
peptide: EVYDFAFR
modifications: not checked
B38: HPV16 E6 peptide … (peptide)
peptide: PLCPEEKQR
modifications: not checked
B39: HPV16 E6 peptide … (peptide)
peptide: WTGRCMSCCR
modifications: not checked
B40: … (HPV31 E1, position 489, 9 amino acids) (peptide)
peptide: WLQPLADAK
modifications: not checked
B41: HPV16 E6 peptide … (peptide)
peptide: DIILECVYCK
modifications: not checked
B42: HPV16 E6 peptide … (peptide)
peptide: NIRGRWTGR
modifications: not checked
B43: HPV45 E1 267 … (peptide)
peptide: LILALLRYK
modifications: not checked
B44: HPV16 E6 peptide … (peptide)
peptide: LLIRCINCQK
modifications: not checked
B45: HPV18 E7 peptide … (position 63, 11 amino acids) (peptide)
peptide: CMCCKCEARIK
modifications: not checked
B46: HPV16 E7 peptide … (peptide)
peptide: CVQSTHVDIR
modifications: not checked
B47: HPV45 E1 209 … (peptide)
peptide: GLSFTDLVR
modifications: not checked
B48: HPV16 E7 peptide … (peptide)
peptide: GIVCPICSQK
modifications: not checked
B49: HPV16 E6 peptide … (peptide)
peptide: AMFQDPQER
modifications: not checked
B50: HPV18 E6 peptide … (position 117, 10 amino acids) (peptide)
peptide: KLRHLNEKRR
modifications: not checked
B51: HPV18 E6 peptide … (position 144, 9 amino acids) (peptide)
peptide: RARQERLQR
modifications: not checked

target: HLA-A*0301 (human); experiment: competition with 125I-labelled standard peptide for purified HLA-A*0301, gel filtration; conditions: not given

Binder | binding affinity ratio (IC50 of standard peptide / IC50 of test peptide) | relative binding ratio (IC50 of standard peptide / IC50 of test peptide) (ratio to standard peptide) | binding affinity ratio (IC50 of standard peptide / IC50 of test peptide) (ratio relative to standard peptide) | relative binding ratio (IC50 of standard peptide / IC50 of test peptide)
B1 | 0.091 |  |  | 
B2 | 0.0005 |  |  | 
B3 | 0.0003 |  |  | 
B4 |  | 0.0002 |  | 
B5 |  | 0.0005 |  | 
B6 |  |  | 0.0008 | 
B7 | 0.0058 |  |  | 
B8 |  |  | 0.0005 | 
B9 | 0.0008 |  |  | 
B10 |  | 0.0003 |  | 
B11 |  | 0.0003 |  | 
B12 |  | 0.0003 |  | 
B13 |  | 0.0003 |  | 
B14 |  | 0.0002 |  | 
B15 |  | 0.0005 |  | 
B16 |  | 0.0002 |  | 
B17 | 0.0005 |  |  | 
B18 |  | 0.0014 |  | 
B19 |  |  |  | 0.0002

same assay, conditions: scale: ratio

Binder | relative binding ratio (A*0301)
B20 | 0.27
B21 | 0.0003
B22 | 0.3

target: HLA-A*0301 (human); experiment: not given; conditions: not given

Binder | relative binding ratio (IC50 of standard peptide / IC50 of test peptide) (ratio to standard peptide)
B23 | 0.0001
B24 | 0.0089
B25 | 0.0025
B26 | 0.0005

target: HLA-A*0301 (human); experiment: competition with 125I-labelled standard peptide for purified HLA, gel filtration; conditions: not given

Binder | binding affinity ratio (IC50 of standard peptide / IC50 of test peptide) | relative binding ratio (IC50 of standard peptide / IC50 of test peptide) | relative binding ratio (IC50 of standard peptide / IC50 of test peptide) (ratio to standard peptide) | binding affinity ratio (IC50 of standard peptide / IC50 of test peptide) (ratio relative to standard peptide)
B27 | 0.0002 |  |  | 
B23 |  | 0.0001 |  | 
B28 |  |  | 0.0005 | 
B24 |  | 0.0089 |  | 
B29 |  | 0.0002 |  | 
B30 | 0.0053 |  |  | 
B31 | 0.0001 |  |  | 
B32 |  |  |  | 0.0005
B33 |  |  | 0.0057 | 
B34 | 0.0016 |  |  | 
B35 |  |  | 0.0058 | 
B36 |  | 0.024 |  | 
B25 |  | 0.0025 |  | 
B26 |  | 0.0005 |  | 
B37 | 0.0004 |  |  | 
B38 | 0.0002 |  |  | 
B39 | 0.0003 |  |  | 
B40 |  |  |  | 0.0005
B41 | 0.0065 |  |  | 
B42 | 0.0014 |  |  | 
B43 |  |  | 0.27 | 
B44 | 0.021 |  |  | 
B45 |  | 0.0014 |  | 
B46 | 0.0049 |  |  | 
B47 |  |  | 0.0009 | 

same assay, conditions: remark: other sources report otherwise

Binder | binding affinity ratio (IC50 of standard peptide / IC50 of test peptide)
B48 | 0.0003
B49 | 0.017

target: HLA-A*1101 (human); experiment: as above; conditions: not given

Binder | binding affinity ratio (IC50 of standard peptide / IC50 of test peptide) | relative binding ratio (IC50 of standard peptide / IC50 of test peptide) | relative binding ratio (IC50 of standard peptide / IC50 of test peptide) (ratio to standard peptide) | binding affinity ratio (IC50 of standard peptide / IC50 of test peptide) (ratio relative to standard peptide)
B27 | 0.07 |  |  | 
B23 |  | 0.0001 |  | 
B28 |  |  | 0.0002 | 
B24 |  | 0.0021 |  | 
B29 |  | 0.0005 |  | 
B30 | 0.011 |  |  | 
B31 | 0.0005 |  |  | 
B32 |  |  |  | 0.0014
B33 |  |  | 0.37 | 
B34 | 0.019 |  |  | 
B35 |  |  | 0.14 | 
B36 |  | 0.024 |  | 
B25 |  | 0.018 |  | 
B26 |  | 0.0051 |  | 
B37 | 0.0025 |  |  | 
B50 |  | 0.0001 |  | 
B38 | 0.0005 |  |  | 
B51 |  | 0.0002 |  | 
B39 | 0.0008 |  |  | 
B40 |  |  |  | 0.0002
B41 | 0.021 |  |  | 
B42 | 0.0005 |  |  | 
B43 |  |  | 0.18 | 
B44 | 0.18 |  |  | 
B45 |  | 0.0002 |  | 
B46 | 0.0001 |  |  | 
B47 |  |  | 0.0025 | 

same assay, conditions: remark: other sources report otherwise

Binder | binding affinity ratio (IC50 of standard peptide / IC50 of test peptide)
B48 | 0.067
B49 | 0.032

Reference: patent US7026443
